Assay [1] addresses T1, human PVRIG recombinant protein (human, UniProt Q6DKI7 41-171).
T1 construct: also called human PVRIG protein; recombinant human antigen PVRIG
T1 sequence: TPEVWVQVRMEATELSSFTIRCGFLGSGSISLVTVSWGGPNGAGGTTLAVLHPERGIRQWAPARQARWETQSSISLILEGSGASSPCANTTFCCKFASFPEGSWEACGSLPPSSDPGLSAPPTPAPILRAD
Put plainly: SPR, antibody captured via anti-human Fc, human PVRIG analyte. The source says: For affinity determination, antibodies were captured by anti-human Fc antibodies, and used in the affinity determination based on surface plasmon resonance (SPR) technology.

Assay [2] deals with T2, Cyno PVRIG expressed on HEK293 cells (cynomolgus monkey).
T2 construct: also called native Cyno PVRIG
T2 chain: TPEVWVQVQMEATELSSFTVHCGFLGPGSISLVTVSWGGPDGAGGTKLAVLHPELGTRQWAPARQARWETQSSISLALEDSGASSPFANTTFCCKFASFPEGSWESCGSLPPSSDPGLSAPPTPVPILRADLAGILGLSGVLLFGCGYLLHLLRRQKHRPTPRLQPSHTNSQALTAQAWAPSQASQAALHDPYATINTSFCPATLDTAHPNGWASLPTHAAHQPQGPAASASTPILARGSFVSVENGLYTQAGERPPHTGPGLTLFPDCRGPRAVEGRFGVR
Put plainly: flow cytometry on 293T cells expressing cyno PVRIG, anti-hFc-AF647 detection. The protocol:
To evaluate the binding activity of anti-PVRIG antibodies to native Cyno PVRIG on living cells. HEK293 cells were engineered to express Cyno PVRIG. HEK293 expressing PVRIG cells were seeded in 96 well plates and were incubated with a serial dilution of anti-PVRIG antibodies. […] EC50 values for dose dependent binding to Cyno native PVRIG were determined by fitting the dose response data to the four-parameter logistic model with GraphPad Prism™.
For orientation: A flow cytometer gives signals particle by particle.

In assay [3] the target is T3, human PVRIG expressed on cells (human, UniProt Q6DKI7 41-326).
T3 construct: Jurkat cells engineered to express human PVRIG; also called hPVRIG-Jurkat; native human PVRIG
T3 sequence: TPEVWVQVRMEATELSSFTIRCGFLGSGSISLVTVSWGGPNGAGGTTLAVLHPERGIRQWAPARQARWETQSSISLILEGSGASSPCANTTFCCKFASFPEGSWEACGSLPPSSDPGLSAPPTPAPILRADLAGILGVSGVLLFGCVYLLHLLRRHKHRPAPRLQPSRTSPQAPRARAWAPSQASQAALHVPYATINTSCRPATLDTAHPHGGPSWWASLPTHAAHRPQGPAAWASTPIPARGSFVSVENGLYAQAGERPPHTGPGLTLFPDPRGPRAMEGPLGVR
Description: flow cytometry on Jurkat cells expressing human PVRIG, anti-hFc-AF647 detection. On the procedure:
To evaluate the binding activity of anti-PVRIG antibodies to native PVRIG on living cells, Jurkat cells were engineered to express human PVRIG. […] EC50 values for dose dependent binding to human native PVRIG were determined by fitting the dose response data to the four-parameter logistic model with GraphPad Prism™.

The target in assay [4] is T4, hPVRIG-ECD-his (human, UniProt Q6DKI7 41-171).
T4 construct: Acrobiosystems PVG-H52H4; also called hPVRIG-His; human PVRIG-His; not shown: His tag
T4 sequence: T1 sequence
Description: blocking ELISA: hPVRIG-His coated, antibody mixed with PVRL2-biotin at 1 ug/mL; % inhibition of PVRL2 binding. A general note: ELISA stands for enzyme-linked immunosorbent assay.

The target of assay [5] is T3, human PVRIG expressed on cells. Put plainly: FACS on human PVRIG-expressing cells.
For assay [6], the target named is T1, human PVRIG recombinant protein. Description: ELISA, chimeric antibody on recombinant human PVRIG.
Assay [7] shares this target. Put plainly: SPR, antibody captured via anti-human Fc, human PVRIG analyte. On the procedure: Chimeric anti-PVRIG antibodies were generated in human IgG1 format and characterized for binding kinetics by surface plasmon resonance (SPR) assays using BIAcore™ T-200 (GE Life Sciences). […] Then a serial dilution of human or Cyno PVRIG protein was flowed over the chip surface and changes in surface plasmon resonance signals were analyzed to calculate the association rates (kₒₙ) and dissociation rates (koff) by using the one-to-one Langmuir binding model (BIA Evaluation Software, GE Life Sciences). The equilibrium dissociation constant (KD) was calculated as the ratio koff/kₒₙ.
This is another data set of the same source.

In assay [8] the target is T4, hPVRIG-ECD-his. Put plainly: competition ELISA, antibody against PVRL2 on coated human PVRIG.
The target in assay [9] is T1, human PVRIG recombinant protein. Put plainly: SPR, antibody captured via anti-human Fc, human PVRIG analyte. The text has this: For affinity determination, anti-PVRIG antibodies were captured by anti-human Fc antibodies, and used in the affinity assay based on surface plasmon resonance (SPR) technology.
The source holds these as a separate data set. On the technique in general: SPR reads the build-up and loss of mass on a sensor chip optically.

Assay [10] addresses T2, Cyno PVRIG expressed on HEK293 cells. Description: flow cytometry on 293T cells expressing cyno PVRIG, anti-hFc-AF647 detection [panel A]. On the procedure:
(§1) To evaluate the binding activity of anti-PVRIG antibodies to native Cyno PVRIG on living cells. HEK293 cells were engineered to express Cyno PVRIG. HEK293 cells transfected with Cyno PVRIG were seeded in 96 well plates and were incubated with a serial dilution of anti-PVRIG antibodies. […] EC50 values for dose dependent binding to Cyno native PVRIG were determined by fitting the dose response data to the four-parameter logistic model with GraphPad Prism™.

For assay [11] the target is unchanged. Description: flow cytometry on HEK293 cells expressing cyno PVRIG, anti-hFc-647 detection [panel B]. The protocol: as §1
Assay [12] addresses T3, human PVRIG expressed on cells. Put plainly: flow cytometry on Jurkat cells expressing human PVRIG, anti-hFc-647 detection [panel B]. The protocol:
(§2) To evaluate the binding activity of anti-PVRIG antibodies to native PVRIG on living cells, Jurkat cells were engineered to express human PVRIG. Jurkat cells expressing PVRIG were seeded in 96 well plates and were incubated with serially diluted anti-PVRIG antibodies. […] EC50 values for dose dependent binding to human native PVRIG were determined by fitting the dose response data to the four-parameter logistic model with GraphPad Prism™.

For assay [13] the target is unchanged. Put plainly: flow cytometry on Jurkat cells expressing human PVRIG, anti-hFc-AF647 detection [panel A]. The protocol: as §2
Assay [14] has as its target T4, hPVRIG-ECD-his. Description: blocking ELISA: hPVRIG-His coated, antibody mixed with PVRL2-biotin at 1 ug/mL; % inhibition of PVRL2 binding [panel A].

Residue numbers refer to the chain shown, from its start. Where two headings read alike, the source gives them in different places.

B1: BGA861 (antibody, V domains shown)
VH: EVQLVESGGGLVKPGGSLRLSCAASGFTFSSYGISWVRQAPGKGLEWVSEISSGGTYTYYPDTVTGRFTISRDNAKNTLYLQMSSLRAEDTAVYYCARGDPFGYWGQGTLVTVSS
VL: DIQMTQSPSSLSASVGDRVTITCKASQDVMTAVAWYQQKPGKAPKLLIYSTSYRFTGVPSRFSGSGSGTDFTLTISSLQPEDFATYYCQQHYSTPRTFGGGTKVEIK
notes: Humanized BGA86
Broadly, the Kd is the equilibrium constant for the complex coming apart. Broadly, the koff is the first-order rate constant of dissociation. For orientation: kon means the second-order rate constant of association. As usually defined, the EC50 (read off the curve) is the concentration needed to bring the measured effect to its halfway point. A low value points to greater potency. In the case of B1, in assay [1], the equilibrium dissociation constant (Kd) was determined as 0.645 nM, the koff worked out at 0.000954 s⁻¹ and the kon is 1.48e+06 M⁻¹ s⁻¹. In addition, the concentration giving a half-maximal response (EC50 (read off the curve)) in assay [2] is about 0.04 µg/mL. Further, in [3], the “EC50 (read off the curve)” value was about 0.02 µg/mL. Moreover, the “IC50 (read off the curve)” value in the assay with hPVRIG-ECD-his [4] was about 0.2 µg/mL.

B2: BGA862 (antibody, V domains shown)
VH: B1 VH with I34L
VL: B1 VL
notes: Humanized BGA86
B2: in assay [1], the Kd came to 0.898 nM, the koff is 0.00216 s⁻¹ and the kon came out at 2.41e+06 M⁻¹ s⁻¹. For the same molecule, the 50% effective concentration (EC50 (read off the curve)) in [2] was about 0.01 µg/mL. Further, the half-maximal effective concentration (EC50 (read off the curve)) in assay [3] is about 0.01 µg/mL. Moreover, the “IC50 (read off the curve)” value with hPVRIG-ECD-his [4] is about 0.1 µg/mL.

B3: BGA86 (antibody, human IgG1, V domains shown)
VH: EVQLQESGGGSVKPGGSLQLSCAASGFTFSSYGMSWIRQSPEKKLEWVAEISSGGTYTYYPDTVTGRFTISRDNAKNTLYLEMSSLRSEDTAMYYCARGDPFGYWGQGTLVTVSA
VL: DVVMTQSHKFVSTSVGGRVSITCKASQDVMTAVAWYQQKPGQSPKLLIYSTSYRFTGVPDRFTGSGSGTDFTLTINGVQAEDLAVYSCQQHYSTPRTFGGGTKLEIK
notes: also called BGA86-WT
The EC50 is the midpoint of the concentration-response curve. By IC50 is commonly meant the concentration that inhibits the measured activity by half. A lower IC50 goes with greater potency in that assay. Consider B3, for which, in assay [5], it took 0.038 nM to reach a half-maximal effect (EC50) and the “binding Emax (MFI)” value turned out to be 1030 MFI. Further, the 50% effective concentration (EC50) in [6] is 0.069 nM. Further, in assay [7], the Kd was determined as 0.161 nM, the koff was found to be 0.00215 s⁻¹ and the association rate constant (kon) was 1.34e+07 M⁻¹ s⁻¹. In addition, in assay [1], the dissociation constant (Kd) was 0.304 nM, the koff worked out at 0.000772 s⁻¹ and the kon was found to be 2.54e+06 M⁻¹ s⁻¹. Moreover, in the assay with hPVRIG-ECD-his [8], the IC50 came to 0.885 nM and the “PVRIG/PVRL2 blocking Emax (% Inhibition)” value worked out at 97.2%. In addition, the “EC50 (read off the curve)” value in [2] was about 0.01 µg/mL. For the same molecule, the “EC50 (read off the curve)” value in assay [3] is about 0.02 µg/mL. Besides, the “IC50 (read off the curve)” value with hPVRIG-ECD-his [4] was about 0.1 µg/mL.

B4: BGA381 (antibody, V domains shown)
VH: EVQLVQSGAEVKKPGASVKVSCKASGYTFTDYWIYWVRQAPGQGLEWMGTIDTSDHKTSYNQKFRGRVTMTRDTSTSTVYMELSSLRSEDTAVYYCARDFIITVNYPVVDYWGQGTLVTVSS
VL: QIVLTQSPATLSLSPGERATLSCSAGSSVNYMHWFQQKPGQAPRLLIYSTSNLASGVPARFSGSGSGTDYTLTISSLEPEDFAVYYCQQRSSLPFTFGQGTKLEIK
notes: Humanized BGA38; also called BGA381-WT; BGA381/IgG1 WT
For B4, the Kd in [9] amounted to 0.0707 nM. For the same molecule, in assay [9], the off-rate constant (koff) stood at 0.000311 s⁻¹. Further, the kon in [9] was 4.4e+06 M⁻¹ s⁻¹. For the same molecule, the concentration giving a half-maximal response (EC50 (read off the curve)) in assay [10] was about 0.06 µg/mL; in assay [11] it was about 0.06 µg/mL; in assay [12], about 0.03 µg/mL; in assay [13], about 0.03 µg/mL. Further, the “IC50 (read off the curve)” value with hPVRIG-ECD-his [14] was about 0.4 µg/mL.

B5: BGA382 (antibody, V domains shown)
VH: B4 VH
VL: B4 VL with I2N, M32L
notes: Humanized BGA38
As for B5, in [9], the Kd was 0.0646 nM, the koff stood at 0.000211 s⁻¹ and the on-rate (kon) was determined as 3.26e+06 M⁻¹ s⁻¹. In assay [10], the concentration for a half-maximal effect (EC50 (read off the curve)) is about 0.03 µg/mL. Moreover, the 50% effective concentration (EC50 (read off the curve)) in [13] was about 0.03 µg/mL. Moreover, in the assay with hPVRIG-ECD-his [14], the “IC50 (read off the curve)” value was about 0.4 µg/mL.

B6: BGA383 (antibody, V domains shown)
VH: B4 VH with H56A
VL: B4 VL
notes: Humanized BGA38
On to B6, for which, in assay [9], the Kd was 0.0998 nM, the off-rate (koff) turned out to be 0.000649 s⁻¹ and the kon came to 6.51e+06 M⁻¹ s⁻¹. For the same molecule, in assay [11], the “EC50 (read off the curve)” value was about 0.04 µg/mL. Moreover, the “EC50 (read off the curve)” value in assay [12] was about 0.03 µg/mL.

B7: BGA38 (antibody, V domains shown)
VH: EVQLQESGAEHVMPGASVKMSCKAAGYTFTDYWMYWVKQRPGQGLEWIGTIDTSDHKTSYNQKFRGKATLTVDESSSTAYMQLSSLTSEDSAVYYCARDFIITVNYPVVDYWGQGTSVTVSS
VL: QNVLTQSPAIMSASPGEKVTITCSAGSSVNYMHWFQQKPGTSPKLWIYSTSNLASGVPARFSGSGSGTSYSLTISRMEAEDAATYYCQQRSSLPFTFGSGTKLEIK
notes: also called BGA38-WT
Take B7: in assay [5], the EC50 amounted to 0.059 nM and the “binding Emax (MFI)” value is 1040 MFI. In [6], the half-maximal effective concentration (EC50) is 0.524 nM. In assay [7], the Kd was found to be 0.112 nM, the dissociation rate constant (koff) was 0.00017 s⁻¹ and the on-rate constant (kon) was determined as 1.52e+06 M⁻¹ s⁻¹. Also, in assay [9], the Kd came to 0.045 nM, the off-rate constant (koff) was determined as 0.000175 s⁻¹ and the kon turned out to be 3.89e+06 M⁻¹ s⁻¹. For the same molecule, in the assay with hPVRIG-ECD-his [8], the IC50 worked out at 1.5 nM and the “PVRIG/PVRL2 blocking Emax (% Inhibition)” value came to 60%. The concentration for a half-maximal effect (EC50 (read off the curve)) in assay [10] was about 0.05 µg/mL. Moreover, the 50% effective concentration (EC50 (read off the curve)) in assay [13] is about 0.03 µg/mL. The “IC50 (read off the curve)” value in the assay with hPVRIG-ECD-his [14] was about 0.6 µg/mL.

Source of the values: patent US20250326842A1 (BEIGENE SWITZERLAND, published 2025).
